From article PMC9735655, “Two Distinct Modes of DNA Binding by an MCM Helicase Enable DNA Translocation” come the findings set out here.

Data set [1] deals with MCM protein of Saccharolobus solfataricus with the C-terminal helix-turn-helix domain removed and a modified linker between the N-terminal domain and the AAA+ ATPase domain (Saccharolobus solfataricus) (UniProt Q9UXG1). In words: cryo-EM structure; SsoMCM at 1 mg/mL mixed 5:1 by volume with 1 mM oligonucleotide (T12, T16 or T20-CTATAG-T20), 5 mM ADP-BeF3, magnesium; plunge-frozen; two structural classes, also refined from merged particles.

In data set [2] the target is T1, SsoMCM (C-terminal HTH removed, modified interdomain linker; pEE078.1) (Saccharolobus solfataricus, UniProt Q9UXG1 1-265+=GGSGGS+275-612, internal_change).
T1 sequence: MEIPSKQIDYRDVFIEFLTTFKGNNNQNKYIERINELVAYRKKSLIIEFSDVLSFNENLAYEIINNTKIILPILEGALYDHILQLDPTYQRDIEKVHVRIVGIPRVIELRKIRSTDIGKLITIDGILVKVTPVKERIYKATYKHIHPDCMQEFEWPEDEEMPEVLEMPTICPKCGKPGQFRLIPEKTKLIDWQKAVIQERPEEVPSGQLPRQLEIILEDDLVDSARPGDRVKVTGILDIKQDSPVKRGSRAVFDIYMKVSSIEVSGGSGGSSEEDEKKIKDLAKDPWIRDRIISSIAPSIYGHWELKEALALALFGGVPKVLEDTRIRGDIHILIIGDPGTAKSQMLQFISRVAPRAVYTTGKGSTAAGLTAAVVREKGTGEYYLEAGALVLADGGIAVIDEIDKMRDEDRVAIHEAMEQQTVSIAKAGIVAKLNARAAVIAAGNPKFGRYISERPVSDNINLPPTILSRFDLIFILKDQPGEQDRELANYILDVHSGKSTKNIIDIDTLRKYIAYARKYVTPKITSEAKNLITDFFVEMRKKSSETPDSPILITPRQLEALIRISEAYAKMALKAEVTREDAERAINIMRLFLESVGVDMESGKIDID
In words: cryo-EM; Mg2+, ADP-BeF3; class 1 (six subunits on DNA); Cryo-EM sample: protein 1 mg/mL mixed 5:1 (v/v) with 1 mM oligonucleotide, 5 mM fresh ADP-BeF3, magnesium present; buffer, salt, pH and temperature not stated in the material. As to conditions: protein: recombinant, tags: His6-SUMO removed with Ulp1, chain copies: 6.

Data set [3] concerns the target T1, SsoMCM (C-terminal HTH removed, …). In words: cryo-EM; Mg2+, ADP-BeF3; class 1 (six subunits on DNA, 2.48 A); Cryo-EM sample: protein 1 mg/mL mixed 5:1 (v/v) with 1 mM oligonucleotide, 5 mM fresh ADP-BeF3, magnesium present; buffer, salt, pH and temperature not stated in the material. As to conditions: protein: recombinant; tags: His6-SUMO removed with Ulp1; chain copies: 6; single strand.

A word on the stoichiometry N: it is the number of molecules, sites or subunits per partner or assembly.

Molecule “MCM protein of Saccharolobus solfataricus with the C-terminal helix-turn-helix domain removed and a modified linker between the N-terminal domain and the AAA+ ATPase domain (from UniProt Q9UXG1 1-686) (enzyme)” returned a stoichiometry N in data set [1] of 6.

B1: T12 (12-mer poly-dT) (ssDNA)
DNA: TTTTTTTTTTTT
Consider B1, for which the binding result in data set [2] (single strand) is “binds”.

B2: T20-CTATAG-T20 (ssDNA)
DNA: TTTTTTTTTTTTTTTTTTTTCTATAGTTTTTTTTTTTTTTTTTTTT
Take B2: in data set [2] (central 6-nt palindrome, potential X-shape with 20-mer poly-dT arms), the binding result was “binds”.

B3: T16 (16-mer poly-dT) (ssDNA)
DNA: TTTTTTTTTTTTTTTT
As to B3, the binding result in data set [3] was “binds”.
